Earlier results as cited in article PMC6780499, “Characterization, Recombinant Production and Structure-Function Analysis of NvCI, A Picomolar Metallocarboxypeptidase Inhibitor from the Marine Snail Nerita versicolor” (Marine Drugs, 2019).

Experiments:
pCPB = molecular target: T1, pCPB (Sus scrofa, UniProt P09955); conditions: ref Arolas et al., 2005 [12]; cited from earlier work
T1 sequence (P09955 111-416): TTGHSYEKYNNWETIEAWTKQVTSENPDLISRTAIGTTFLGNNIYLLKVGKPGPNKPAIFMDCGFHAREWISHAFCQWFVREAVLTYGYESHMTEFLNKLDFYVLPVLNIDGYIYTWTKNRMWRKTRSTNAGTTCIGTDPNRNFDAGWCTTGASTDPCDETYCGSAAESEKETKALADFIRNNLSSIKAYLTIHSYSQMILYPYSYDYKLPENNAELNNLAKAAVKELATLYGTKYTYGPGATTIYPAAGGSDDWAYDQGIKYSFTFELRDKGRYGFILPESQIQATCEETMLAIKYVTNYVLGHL
Text: Table 2 Ki values of various proteinaceous metallocarboxypeptidases (MCPs) inhibitors. | column: Ki (nM) / rPCI (a); Ki (nM) / rTCI (b); Ki (nM) / rLCI (c)

bTAFI = molecular target: T2, bTAFI (Bos taurus, UniProt Q2KIG3); conditions: ref Arolas et al., 2005 [12]; cited from earlier work
T2 sequence (Q2KIG3 115-423): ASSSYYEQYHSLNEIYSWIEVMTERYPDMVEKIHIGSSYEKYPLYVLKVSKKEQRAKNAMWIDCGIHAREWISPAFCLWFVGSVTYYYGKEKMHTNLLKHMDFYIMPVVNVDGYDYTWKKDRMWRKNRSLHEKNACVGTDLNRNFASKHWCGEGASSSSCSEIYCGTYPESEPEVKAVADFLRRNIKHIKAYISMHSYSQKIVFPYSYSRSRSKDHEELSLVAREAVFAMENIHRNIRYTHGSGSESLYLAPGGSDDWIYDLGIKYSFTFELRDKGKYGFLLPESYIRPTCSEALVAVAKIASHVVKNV
Text: Table 2 Ki values of various proteinaceous metallocarboxypeptidases (MCPs) inhibitors. | column: Ki (nM) / rPCI (a); Ki (nM) / rTCI (b)

hTAFI = molecular target: T3, hTAFI (Homo sapiens, UniProt Q96IY4); conditions: ref Arolas et al., 2005 [12]; cited from earlier work
T3 sequence (Q96IY4 115-423): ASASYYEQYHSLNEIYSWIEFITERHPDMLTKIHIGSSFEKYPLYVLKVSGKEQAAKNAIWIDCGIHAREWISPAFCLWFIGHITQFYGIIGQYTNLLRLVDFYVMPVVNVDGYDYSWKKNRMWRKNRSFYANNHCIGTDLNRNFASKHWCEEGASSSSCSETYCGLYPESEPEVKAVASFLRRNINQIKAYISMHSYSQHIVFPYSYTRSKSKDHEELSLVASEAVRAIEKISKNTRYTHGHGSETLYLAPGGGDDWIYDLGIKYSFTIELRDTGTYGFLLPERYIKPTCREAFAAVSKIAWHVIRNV
Text: Table 2 Ki values of various proteinaceous metallocarboxypeptidases (MCPs) inhibitors. | column: Ki (nM) / rPCI (a); Ki (nM) / rTCI (b); Ki (nM) / rACI (d); Ki (nM) / rhuman latexin (e)

bCPA1 = molecular target: T4, bCPA1 (Bos taurus, UniProt P00730); conditions: ref Arolas et al., 2005 [12]; cited from earlier work
T4 sequence (P00730 111-419): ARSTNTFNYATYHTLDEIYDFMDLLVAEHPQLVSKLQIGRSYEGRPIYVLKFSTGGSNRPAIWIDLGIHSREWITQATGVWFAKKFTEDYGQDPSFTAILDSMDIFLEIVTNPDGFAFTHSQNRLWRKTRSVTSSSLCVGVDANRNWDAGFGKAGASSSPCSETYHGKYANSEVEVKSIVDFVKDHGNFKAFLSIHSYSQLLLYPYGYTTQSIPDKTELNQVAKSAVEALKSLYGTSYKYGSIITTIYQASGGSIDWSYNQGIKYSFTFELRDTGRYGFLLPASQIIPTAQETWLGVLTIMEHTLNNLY
Text: (§1) Table 2 Ki values of various proteinaceous metallocarboxypeptidases (MCPs) inhibitors. | column: Ki (nM) / rPCI (a); Ki (nM) / rTCI (b); Ki (nM) / rLCI (c); Ki (nM) / rACI (d); Ki (nM) / rhuman latexin (e)

hCPA1 = molecular target: T5, hCPA1 (Homo sapiens, UniProt P15085); conditions: ref Arolas et al., 2005 [12]; cited from earlier work
T5 sequence (P15085 111-419): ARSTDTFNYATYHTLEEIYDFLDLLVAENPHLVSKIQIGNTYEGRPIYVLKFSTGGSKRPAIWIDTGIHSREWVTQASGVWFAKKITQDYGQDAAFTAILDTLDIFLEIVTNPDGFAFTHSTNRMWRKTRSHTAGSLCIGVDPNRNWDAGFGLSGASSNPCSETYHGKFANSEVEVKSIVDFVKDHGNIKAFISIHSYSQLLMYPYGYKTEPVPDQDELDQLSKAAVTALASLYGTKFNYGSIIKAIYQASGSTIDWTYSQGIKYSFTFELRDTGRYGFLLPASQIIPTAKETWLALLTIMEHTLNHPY
Text: as §1

hCPA4 = molecular target: T6, hCPA4 (Homo sapiens, UniProt Q9UI42); conditions: ref Tanco et al., 2010 [22]; cited from earlier work
T6 sequence (Q9UI42 114-421): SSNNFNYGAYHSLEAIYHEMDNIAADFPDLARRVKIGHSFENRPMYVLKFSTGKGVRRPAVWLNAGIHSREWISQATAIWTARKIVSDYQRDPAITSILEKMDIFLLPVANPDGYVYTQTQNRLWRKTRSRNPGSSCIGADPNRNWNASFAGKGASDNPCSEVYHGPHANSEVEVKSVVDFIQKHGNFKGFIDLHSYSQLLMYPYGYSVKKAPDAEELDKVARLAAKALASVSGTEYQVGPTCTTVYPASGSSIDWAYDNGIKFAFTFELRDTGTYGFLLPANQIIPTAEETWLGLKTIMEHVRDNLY
Text: as §1

hCPA2 = molecular target: T7, hCPA2 (Homo sapiens, UniProt P48052); conditions: ref Arolas et al., 2005 [12]; cited from earlier work
T7 sequence (P48052 115-419): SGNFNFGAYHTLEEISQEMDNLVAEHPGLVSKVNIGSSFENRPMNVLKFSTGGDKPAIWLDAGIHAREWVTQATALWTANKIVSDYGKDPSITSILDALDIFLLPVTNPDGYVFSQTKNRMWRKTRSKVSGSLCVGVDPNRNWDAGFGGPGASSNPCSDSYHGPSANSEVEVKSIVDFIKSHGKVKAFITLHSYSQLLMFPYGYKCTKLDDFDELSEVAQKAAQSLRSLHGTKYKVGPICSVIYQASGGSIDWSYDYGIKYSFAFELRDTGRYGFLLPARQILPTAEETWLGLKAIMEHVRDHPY
Text: as §1

hCPB = molecular target: T8, hCPB (Homo sapiens, UniProt P15086); conditions: ref Arolas et al., 2005 [12]; cited from earlier work
T8 sequence (P15086 111-417): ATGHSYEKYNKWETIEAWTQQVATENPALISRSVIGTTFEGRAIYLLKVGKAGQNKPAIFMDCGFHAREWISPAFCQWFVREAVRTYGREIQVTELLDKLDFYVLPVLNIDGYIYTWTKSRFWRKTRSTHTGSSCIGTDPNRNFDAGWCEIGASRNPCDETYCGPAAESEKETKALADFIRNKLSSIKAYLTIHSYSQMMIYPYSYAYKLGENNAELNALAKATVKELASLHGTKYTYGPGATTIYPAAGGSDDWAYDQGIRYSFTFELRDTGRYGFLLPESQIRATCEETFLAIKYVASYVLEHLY
Text: Table 2 Ki values of various proteinaceous metallocarboxypeptidases (MCPs) inhibitors. | column: Ki (nM) / rPCI (a); Ki (nM) / rTCI (b); Ki (nM) / rLCI (c); Ki (nM) / rhuman latexin (e)

For “rPCI: recombinant proteinaceous carboxypeptidase inhibitor from potato (QQHADPICNKPCKTHDDCSGAWFCQACWNSARTCGPYVG; UniProt P01075 1-39, looked up) [reference compound]”, the Ki (pCPB) is listed as 7.2 ± 0.6 nM, the Ki (bTAFI) is listed as 2.5 ± 0.4 nM and the Ki (hTAFI) is listed as 5.2 ± 0.5 nM. For the same substance, the Ki (bCPA1) was 1.6 ± 0.2 nM, the Ki (hCPA1) was 1.6 ± 0.3 nM and the Ki (hCPA4) was 1.3 ± 0.1 nM. For the same substance, the Ki (hCPA2) was 8.8 ± 0.7 nM and the Ki (hCPB) was 1.8 ± 0.3 nM.
